For experiment [1], the target named is NusA-AR2^D443C labeled with fluorescein-5-maleimide (E. coli) (UniProt P0AFF6). The experiment is described as follows: fluorescence polarisation.
The next experiment concerns the target RNA polymerase (E. coli) (UniProt P0A7Z4). As to the kind of experiment: SEC.

Take “inositol monophosphatase SuhB (from UniProt P0ADG4 1-267) (natural protein)”: the Kd in experiment [1] is 83 µM. The percent of SuhB coeluted with the rrnG-TAC with RNA polymerase (E. coli) was 20%. In the experiment with RNA polymerase (E. coli), “ribosomal protein S4 (from UniProt P0A7V8 1-206) (natural protein)” showed a percent of S4 coeluted with the rrnG-TAC of 25%.

These data come from article PMC6614797.
